Test results from paper PMC10991500, “A multi-enzyme cascade for efficient production of D-p-hydroxyphenylglycine from L-tyrosine” (Bioresources and Bioprocessing, 2021).

B1: CgDAPDH^BC621 (Corynebacterium glutamicum ATCC 13032; D154G/H244N/Q150L/R195M/T169I) (protein)
chain: MTNIRVAIVGYGNLGRSVEKLIAKQPDMDLVGIFSRRATLDTKTPVFDVADVDKHADDVDVLFLCMGSATDIPEQAPKFAQFACTVDTYDNHRDIPRHRQVMNEAATAAGNVALVSTGWDPGMFSINRVYAAAVLAEHQQHTFWGPGLSLGHSGALRRIPGVQKAVQYILPSEDALEKARRGEAGDLTGKQTHKMQCFVVADAADHERIENDIRTMPDYFVGYEVEVNFIDEATFDSEHTGMPNGGHVITTGDTGGFNHTVEYILKLDRNPDFTASSQIAFGRAAHRMKQQGQSGAFTVLEVAPYLLSPENLDDLIARDV
notes: five-fold mutant BC621 in pET28a, recombinant in E. coli BL21(DE3), HisTrap purified
B2: CgDAPDH^BC621 (Corynebacterium glutamicum ATCC 13032; D120S/D154G/H244N/Q150L/R195M/T169P/W144S) (protein)
chain: MTNIRVAIVGYGNLGRSVEKLIAKQPDMDLVGIFSRRATLDTKTPVFDVADVDKHADDVDVLFLCMGSATDIPEQAPKFAQFACTVDTYDNHRDIPRHRQVMNEAATAAGNVALVSTGWSPGMFSINRVYAAAVLAEHQQHTFSGPGLSLGHSGALRRIPGVQKAVQYPLPSEDALEKARRGEAGDLTGKQTHKMQCFVVADAADHERIENDIRTMPDYFVGYEVEVNFIDEATFDSEHTGMPNGGHVITTGDTGGFNHTVEYILKLDRNPDFTASSQIAFGRAAHRMKQQGQSGAFTVLEVAPYLLSPENLDDLIARDV
notes: as for B1
B3: CgDAPDH^BC621 (Corynebacterium glutamicum ATCC 13032; D154G/H244N/Q150L/R195M/T169P/W144S) (protein)
chain: MTNIRVAIVGYGNLGRSVEKLIAKQPDMDLVGIFSRRATLDTKTPVFDVADVDKHADDVDVLFLCMGSATDIPEQAPKFAQFACTVDTYDNHRDIPRHRQVMNEAATAAGNVALVSTGWDPGMFSINRVYAAAVLAEHQQHTFSGPGLSLGHSGALRRIPGVQKAVQYPLPSEDALEKARRGEAGDLTGKQTHKMQCFVVADAADHERIENDIRTMPDYFVGYEVEVNFIDEATFDSEHTGMPNGGHVITTGDTGGFNHTVEYILKLDRNPDFTASSQIAFGRAAHRMKQQGQSGAFTVLEVAPYLLSPENLDDLIARDV
notes: as for B1
B4: CgDAPDH^BC621 (Corynebacterium glutamicum ATCC 13032; D120S/D154G/H244N/Q150L/R195M/T169P) (protein)
chain: MTNIRVAIVGYGNLGRSVEKLIAKQPDMDLVGIFSRRATLDTKTPVFDVADVDKHADDVDVLFLCMGSATDIPEQAPKFAQFACTVDTYDNHRDIPRHRQVMNEAATAAGNVALVSTGWSPGMFSINRVYAAAVLAEHQQHTFWGPGLSLGHSGALRRIPGVQKAVQYPLPSEDALEKARRGEAGDLTGKQTHKMQCFVVADAADHERIENDIRTMPDYFVGYEVEVNFIDEATFDSEHTGMPNGGHVITTGDTGGFNHTVEYILKLDRNPDFTASSQIAFGRAAHRMKQQGQSGAFTVLEVAPYLLSPENLDDLIARDV
notes: as for B1
B5: CgDAPDH^BC621 (Corynebacterium glutamicum ATCC 13032; D154G/H244N/Q150L/R195M/T169P) (protein)
chain: MTNIRVAIVGYGNLGRSVEKLIAKQPDMDLVGIFSRRATLDTKTPVFDVADVDKHADDVDVLFLCMGSATDIPEQAPKFAQFACTVDTYDNHRDIPRHRQVMNEAATAAGNVALVSTGWDPGMFSINRVYAAAVLAEHQQHTFWGPGLSLGHSGALRRIPGVQKAVQYPLPSEDALEKARRGEAGDLTGKQTHKMQCFVVADAADHERIENDIRTMPDYFVGYEVEVNFIDEATFDSEHTGMPNGGHVITTGDTGGFNHTVEYILKLDRNPDFTASSQIAFGRAAHRMKQQGQSGAFTVLEVAPYLLSPENLDDLIARDV
notes: as for B1
B6: PaMDH (Pseudomonas aeruginosa) (protein)
chain: MSQNLFNVEDYRKLAQKRLPKMVYDYLEGGAEDEYGVKHNRDVFQQWRFKPKRLVDVSRRSLQAEVLGKRQSMPLLIGPTGLNGALWPKGDLALAQAATKAGIPFVLSTASNMSIEDLARQCDGDLWFQLYVIHREIAQGMVLKALHSGYTTLVLTTDVAVNGYRERDLHNRFKMPMSYTPKVMLDGCLHPRWSLDLVRHGMPQLANFVSSQTSSLEMQAALMSRQMDASFNWEALRWLRDLWPHKLLVKGLLSAEDADHCIAEGADGVILSNHGGRQLDCAVSPMEVLAQSVAKTGKPVLIDSGFRRGSDIVKALALGAEAVLLGRATLYGLAARGETGVDEVLTLLKADIDRTLAQIGCPDITSLSPDYLQSEGVTSTAPVDHLIGKGTHA
notes: recombinant in E. coli BL21(DE3), HisTrap purified

Key:
PmL-AAD = tested on: T1, PmL-AAD; experiment: initial rates by HPLC, Michaelis-Menten fit; type: biochemical, Proteus mirabilis; conditions: 50 mM Tris-HCl pH 8.0, 30 °C; substrate 1-20 mM
T1 construct: recombinant in E. coli BL21(DE3), Tween 80 solubilised, HisTrap purified
From the text: initial rates by HPLC, Michaelis-Menten fit on PmL-AAD

[1] = substrate: O=C(O)C(=O)c1ccc(O)cc1; experiment: initial rates of reductive amination, HPLC, Michaelis-Menten fit; type: biochemical, Corynebacterium glutamicum; conditions: 0.5 mM NADPH, 10 mM NH4Cl, 50 mM Tris-HCl pH 8.0, 30 °C, HPGA 1-20 mM
From the text: initial rates of reductive amination, HPLC, Michaelis-Menten fit on CgDAPDH^BC621

[2] = substrate: O=C(O)[C@@H](O)c1ccc(O)cc1; experiment: initial rates by HPLC, Michaelis-Menten fit; type: biochemical, Pseudomonas aeruginosa; conditions: 0.5 mM NADP+, 50 mM Tris-HCl pH 8.0, 30 °C, substrate 1-20 mM
From the text: initial rates by HPLC, Michaelis-Menten fit on PaMDH

Row | Molecule | Km (PmL-AAD) [mM] | Km [1] [mM] | kcat [1] [s⁻¹] | kcat/Km [1] [M⁻¹ s⁻¹] | Km [2] [mM] | kcat [2] [s⁻¹] | kcat/Km [2] [M⁻¹ s⁻¹]
1 | N[C@@H](Cc1ccc(O)cc1)C(=O)O [L-tyrosine] | 2.94 ± 1.04 | – | – | – | – | – | –
2 | B1 | – | 20.37 ± 0.19 | 0.00317 ± 0.00617 | 0.15 | – | – | –
3 | B2 | – | 2.48 ± 0.28 | 0.0448 ± 0.005 | 18 | – | – | –
4 | B3 | – | 8.07 ± 0.68 | 0.0225 ± 0.0232 | 2.83 | – | – | –
5 | B4 | – | 7.83 ± 0.03 | 0.0243 ± 0.0117 | 3.17 | – | – | –
6 | B5 | – | 8.17 ± 0.89 | 0.0247 ± 0.00417 | 3 | – | – | –
7 | B6 | – | – | – | – | 0.89 ± 0.91 | 0.123 ± 0.0122 | 179 ± 3.67
